This note sets out measurements from the supplement of paper PMC7125110.

The chains are these.
B1: glmS ribozyme (parent)
chain: AUAAAAGCGCCAGAACUACAGAAAUGUAGUUGACGAGGAGGAGGUUUAUCGAAUUUUCGGCGGAUGCCUCCAAA

What all share (settings): with glucosamine-6-phosphate
The variants in data set [1] derive from B1. Briefly: kcat; higher = faster cleavage; RNA array. Put shortly:
(§1)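 The measurements used barcoded ribozyme variants on sequenced MiSeq chips, transcribed in situ by E. coli RNA polymerase and tracked at 37 °C with a hybridised Cy3 probe. Glucosamine-6-phosphate, 40 μM to 10 mM in HEPES/KCl/Mg(OAc)2 buffer, was flowed in while tiles were imaged over ~14 h. Baseline-normalised signals, also normalised to non-cleaving reference variants, gave per-tile medians that were fit to one- or two-exponential decays for kobs. kcat and KM resulted from weighted Michaelis–Menten fits across concentrations.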

In data set [2] the parent is B1. Briefly: self-cleavage kobs at 40 uM GlcN6P; higher = faster cleavage; RNA array. The gist of the method: as §1
The variants in data set [3] derive from B1. As to the kind of experiment: self-cleavage kobs at 160 uM GlcN6P; higher = faster cleavage; RNA array. The gist of the method:
as §1

Data set [4] covers variants of B1. Briefly: self-cleavage kobs at 640 uM GlcN6P; higher = faster cleavage; RNA array. Put shortly: as §1
Data set [5] covers variants of B1. Briefly: self-cleavage kobs at 2500 uM GlcN6P; higher = faster cleavage; RNA array. The gist of the method: as §1
Variants of B1 are the subject of data set [6]. Briefly: self-cleavage kobs at 10000 uM GlcN6P; higher = faster cleavage; RNA array. Put shortly: as §1
The variants in data set [7] derive from B1. As to the kind of experiment: KM; higher = weaker cofactor use; RNA array. Put shortly:
as §1

± gives the standard error. For part of these data: This sample holds only a part of the variants without activity.

In the case of U55G C67A, the kcat (in general, the maximal rate divided by the concentration of active sites) in data set [1] amounted to 0.000773 ± 0.00021 s⁻¹. For the same variant, the “self-cleavage kobs at 40 uM GlcN6P” value in data set [2] was 0.000267 ± 4.8e-05 s⁻¹. For the same variant, in data set [3], the “self-cleavage kobs at 160 uM GlcN6P” value stood at 0.000394 ± 8.8e-05 s⁻¹. The “self-cleavage kobs at 640 uM GlcN6P” value in data set [4] turned out to be 0.000772 ± 0.00013 s⁻¹.

Regarding G29A G40U, the kcat in data set [1] came out at 0.000248 ± 5.6e-05 s⁻¹. Further, the “self-cleavage kobs at 640 uM GlcN6P” value in data set [4] was 8.95e-05 ± 1.9e-05 s⁻¹. Further, the “self-cleavage kobs at 2500 uM GlcN6P” value in data set [5] was found to be 0.000207 ± 2.8e-05 s⁻¹. Moreover, in data set [6], the “self-cleavage kobs at 10000 uM GlcN6P” value was determined as 0.000182 ± 4e-05 s⁻¹.

Consider A33U U47G, for which the kcat in data set [1] turned out to be 4.65e-05 ± 3.9e-06 s⁻¹. The “self-cleavage kobs at 40 uM GlcN6P” value in data set [2] was less than 1e-05 s⁻¹. The “self-cleavage kobs at 2500 uM GlcN6P” value in data set [5] amounted to 4.09e-05 ± 6.6e-06 s⁻¹. Further, the “self-cleavage kobs at 10000 uM GlcN6P” value in data set [6] stood at 4.2e-05 ± 5.3e-06 s⁻¹.

Regarding G29U U54A C67G, in data set [1], the kcat came to 8.75e-05 ± 2.6e-05 s⁻¹. In addition, the “self-cleavage kobs at 160 uM GlcN6P” value in data set [3] amounted to 5.68e-05 ± 1.4e-05 s⁻¹. Besides, in data set [4], the “self-cleavage kobs at 640 uM GlcN6P” value turned out to be 8.37e-05 ± 1.3e-05 s⁻¹. The “self-cleavage kobs at 2500 uM GlcN6P” value in data set [5] is 0.000134 ± 2.5e-05 s⁻¹. Besides, in data set [6], the “self-cleavage kobs at 10000 uM GlcN6P” value was 5.17e-05 ± 2e-05 s⁻¹.

For C67G, the kcat in data set [1] came out at 0.00185 ± 0.00017 s⁻¹. In addition, the KM (in general, the concentration of substrate that gives half-maximal velocity) in data set [7] is 2390 ± 300 µM. Further, in data set [2], the “self-cleavage kobs at 40 uM GlcN6P” value is 3.28e-05 ± 1e-06 s⁻¹. Further, the “self-cleavage kobs at 160 uM GlcN6P” value in data set [3] was 0.000109 ± 2.8e-06 s⁻¹. In addition, the “self-cleavage kobs at 640 uM GlcN6P” value in data set [4] worked out at 0.00046 ± 4e-05 s⁻¹. Moreover, the “self-cleavage kobs at 2500 uM GlcN6P” value in data set [5] came to 0.00108 ± 3.9e-05 s⁻¹. For the same variant, the “self-cleavage kobs at 10000 uM GlcN6P” value in data set [6] worked out at 0.00145 ± 3.7e-05 s⁻¹.

On to C50G G60C U69A, for which the kcat in data set [1] is 8.12e-05 ± 2.6e-05 s⁻¹. Moreover, the “self-cleavage kobs at 160 uM GlcN6P” value in data set [3] was 0.00016 ± 4.5e-05 s⁻¹. For the same variant, the “self-cleavage kobs at 640 uM GlcN6P” value in data set [4] is 0.00011 ± 2.1e-05 s⁻¹. For the same variant, in data set [5], the “self-cleavage kobs at 2500 uM GlcN6P” value came to 0.000146 ± 3.1e-05 s⁻¹. Further, in data set [6], the “self-cleavage kobs at 10000 uM GlcN6P” value came out at 4.94e-05 ± 1.4e-05 s⁻¹.

Turning to C50A U65G, the kcat in data set [1] amounted to 2.65e-05 ± 9.7e-06 s⁻¹.

On to U31A C67G, for which the kcat in data set [1] was 0.000586 ± 0.00013 s⁻¹. Also, in data set [7], the Michaelis constant (KM) came out at 3660 ± 1500 µM. For the same variant, the “self-cleavage kobs at 640 uM GlcN6P” value in data set [4] came out at 0.0001 ± 2.6e-05 s⁻¹. For the same variant, the “self-cleavage kobs at 2500 uM GlcN6P” value in data set [5] worked out at 0.000201 ± 4.4e-05 s⁻¹. In addition, the “self-cleavage kobs at 10000 uM GlcN6P” value in data set [6] worked out at 0.000456 ± 7.3e-05 s⁻¹.

On to C16G U54A, for which the kcat in data set [1] was 0.00588 ± 0.0013 s⁻¹. The KM in data set [7] is 1860 ± 560 µM. In addition, the “self-cleavage kobs at 40 uM GlcN6P” value in data set [2] stood at 0.000135 ± 1.8e-05 s⁻¹. Also, in data set [3], the “self-cleavage kobs at 160 uM GlcN6P” value was determined as 0.000487 ± 0.00011 s⁻¹. The “self-cleavage kobs at 640 uM GlcN6P” value in data set [4] came out at 0.00144 ± 0.00019 s⁻¹. Further, the “self-cleavage kobs at 2500 uM GlcN6P” value in data set [5] was 0.0024 ± 0.00062 s⁻¹. Also, the “self-cleavage kobs at 10000 uM GlcN6P” value in data set [6] turned out to be 0.00601 ± 0.00089 s⁻¹.

As to C16G A53U, the kcat in data set [1] was determined as 0.00332 ± 0.00045 s⁻¹. Moreover, the KM in data set [7] is 1910 ± 380 µM. The “self-cleavage kobs at 40 uM GlcN6P” value in data set [2] was found to be 8.15e-05 ± 1.4e-05 s⁻¹. Also, the “self-cleavage kobs at 160 uM GlcN6P” value in data set [3] is 0.000238 ± 6e-05 s⁻¹. The “self-cleavage kobs at 640 uM GlcN6P” value in data set [4] amounted to 0.000752 ± 0.00012 s⁻¹. Also, the “self-cleavage kobs at 2500 uM GlcN6P” value in data set [5] is 0.00182 ± 0.0004 s⁻¹. For the same variant, the “self-cleavage kobs at 10000 uM GlcN6P” value in data set [6] is 0.00295 ± 0.00047 s⁻¹.

Turning to G40A C50U U54C C68U, the kcat in data set [1] is less than 1e-05 s⁻¹. In addition, the “self-cleavage kobs at 40 uM GlcN6P” value in data set [2] is less than 1e-05 s⁻¹. Also, in data set [3], the “self-cleavage kobs at 160 uM GlcN6P” value is less than 1e-05 s⁻¹. The “self-cleavage kobs at 10000 uM GlcN6P” value in data set [6] was less than 1e-05 s⁻¹.

With G29U A64C, in data set [1], the turnover number (kcat) was 1.56e-05 ± 2.5e-06 s⁻¹. In data set [2], the “self-cleavage kobs at 40 uM GlcN6P” value is less than 1e-05 s⁻¹.

As to G51U U69A, in data set [1], the kcat was 5.12e-05 ± 2.4e-05 s⁻¹. Besides, the “self-cleavage kobs at 640 uM GlcN6P” value in data set [4] was 7.72e-05 ± 1.7e-05 s⁻¹.

For the variant A6U G13U, in data set [1], the kcat was less than 1e-05 s⁻¹. The “self-cleavage kobs at 40 uM GlcN6P” value in data set [2] is less than 1e-05 s⁻¹. In addition, the “self-cleavage kobs at 640 uM GlcN6P” value in data set [4] is less than 1e-05 s⁻¹.

As for A14C U69G, the kcat in data set [1] came out at 4.01e-05 ± 6.9e-06 s⁻¹. Moreover, in data set [3], the “self-cleavage kobs at 160 uM GlcN6P” value was found to be 6.28e-05 ± 2.1e-05 s⁻¹. The “self-cleavage kobs at 640 uM GlcN6P” value in data set [4] was found to be 5.28e-05 ± 2.2e-05 s⁻¹. Further, the “self-cleavage kobs at 2500 uM GlcN6P” value in data set [5] was 4.06e-05 ± 9.1e-06 s⁻¹. Moreover, the “self-cleavage kobs at 10000 uM GlcN6P” value in data set [6] amounted to 3.03e-05 ± 1.2e-05 s⁻¹.

Consider C8G G37U, for which the kcat in data set [1] is less than 1e-05 s⁻¹. For the same variant, in data set [3], the “self-cleavage kobs at 160 uM GlcN6P” value is less than 1e-05 s⁻¹.

As to A39U A48U, the kcat in data set [1] came to 0.000306 ± 1.3e-05 s⁻¹. Also, the KM in data set [7] came out at 1710 ± 170 µM. Moreover, the “self-cleavage kobs at 640 uM GlcN6P” value in data set [4] was 8.14e-05 ± 9.1e-06 s⁻¹. Moreover, the “self-cleavage kobs at 2500 uM GlcN6P” value in data set [5] is 0.000201 ± 2.9e-05 s⁻¹. In data set [6], the “self-cleavage kobs at 10000 uM GlcN6P” value was found to be 0.000257 ± 2.2e-05 s⁻¹.
